In FireProtDB (doi:10.1021/bi020461s):

B1: Glutamate dehydrogenase, P96110 (parent)
chain: MPEKSLYEMAVEQFNRAASLMDLESDLAEVLRRPKRVLIVEFPVRMDDGHVEVFTGYRVQHNVARGPAKGGIRYHPDVTLDEVKALAFWMTWKTAVMNLPFGGGKGGVRVDPKKLSRNELERLSRRFFSEIQVIIGPYNDIPAPDVNTNADVMAWYMDTYSMNVGHTVLGIVTGKPVELGGSKGREEATGRGVKVCAGLAMDVLGIDPKKATVAVQGFGNVGQFAALLISQELGSKVVAVSDSRGGIYNPEGFDVEELIRYKKEHGTVVTYPKGERITNEELLELDVDILVPAALEGAIHAGNAERIKAKAVVEGANGPTTPEADEILSRRGILVVPDILANAGGVTVSYFEWVQDLQSFFWDLDQVRNALEKMMKGAFNDVMKVKEKYNVDMRTAAYILAIDRVAYATKKRGIYP

Variants of: B1
Settings: Thermotoga maritima (strain ATCC 43589 / DSM 3109 / JCM 10099 / NBRC 100826 / MSB8), pH 7, CD, sodium phosphate 20 mM, reversible: yes, structure 1B26, whole UniProt chain shown

| Variant | ddG of mutation (higher = less stable) (20 °C, GdnHCl) [kcal/mol] | denaturant m value (20 °C, GdnHCl) [kcal/mol/M] | denaturant midpoint (higher = more stable) (20 °C, GdnHCl) [M] | unfolding free energy (20 °C, GdnHCl) [kcal/mol] | ddG of mutation (higher = less stable) (20 °C, Urea) [kcal/mol] | denaturant m value (20 °C, Urea) [kcal/mol/M] | denaturant midpoint (higher = more stable) (20 °C, Urea) [M] | unfolding free energy (20 °C, Urea) [kcal/mol] | ddG of mutation (higher = less stable) (69.5 °C, Thermal) [kcal/mol] | Tm (Thermal) [°C] | change of melting temperature, mutant - wild type (higher = more stable) (Thermal) [°C] | unfolding enthalpy (van 't Hoff) (Thermal) [kcal/mol] |
| --- | --- | --- | --- | --- | --- | --- | --- | --- | --- | --- | --- | --- |
| MPEKSLYEMAVEQFNRAASLMDLESDLAEVLRRPKRVLIVEFPVRMDDGHVEVFTGYRVQHNVARGPAKGGIRYHPDVTLDEVKALAFWMTWKTAVMNLPFGGGKGGVRVDPKKLSRNELERLSRRFFSEIQVIIGPYNDIPAPDVNTNADVMAWYMDTYSMNVGHTVLGIVTGKPVELGGSKGREEATGAGVAVCAGLAMDVLGIDPKKATVAVQGFGNVGQFAALLISQALGSKVVAVSDSRGGIYNPEGFDVEELIRYKKEHGTVVTYPKGERITNEELLELDVDILVPAALEGAIHAGNAERIKAKAVVEGANGPTTPEADEILSRRGILVVPDILANAGGVTVSYFEWVQDLQSFFWDLDQVRNALEKMMKGAFNDVMKVKEKYNVDMRTAAYILAIDRVAYATKKRGIYP [R191A E232A K194A] | -0.03 | 2.72 | 1.74 | 5.15 | -0.04 | 1.42 | 3.35 | 4.89 | -0.2 | 70.8 | 1.3 | 50.6 |
| MPEKSLYEMAVEQFNRAASLMDLESDLAEVLRRPKRVLIVEFPVRMDDGHVEVFTGYRVQHNVARGPAKGGIRYHPDVTLDEVKALAFWMTWKTAVMNLPFGGGKGGVRVDPKKLSRNELERLSRRFFSEIQVIIGPYNDIPAPDVNTNADVMAWYMDTYSMNVGHTVLGIVTGKPVELGGSKGREEATGAGVKVCAGLAMDVLGIDPKKATVAVQGFGNVGQFAALLISQALGSKVVAVSDSRGGIYNPEGFDVEELIRYKKEHGTVVTYPKGERITNEELLELDVDILVPAALEGAIHAGNAERIKAKAVVEGANGPTTPEADEILSRRGILVVPDILANAGGVTVSYFEWVQDLQSFFWDLDQVRNALEKMMKGAFNDVMKVKEKYNVDMRTAAYILAIDRVAYATKKRGIYP [R191A E232A] | 0.86 | 3.08 | 1.44 | 4.26 | 0.53 | 1.53 | 2.96 | 4.32 | 0.15 | 68.5 | -1 | 44.6 |
| MPEKSLYEMAVEQFNRAASLMDLESDLAEVLRRPKRVLIVEFPVRMDDGHVEVFTGYRVQHNVARGPAKGGIRYHPDVTLDEVKALAFWMTWKTAVMNLPFGGGKGGVRVDPKKLSRNELERLSRRFFSEIQVIIGPYNDIPAPDVNTNADVMAWYMDTYSMNVGHTVLGIVTGKPVELGGSKGREEATGAGVKVCAGLAMDVLGIDPKKATVAVQGFGNVGQFAALLISQELGSKVVAVSDSRGGIYNPEGFDVEELIRYKKEHGTVVTYPKGERITNEELLELDVDILVPAALEGAIHAGNAERIKAKAVVEGANGPTTPEADEILSRRGILVVPDILANAGGVTVSYFEWVQDLQSFFWDLDQVRNALEKMMKGAFNDVMKVKEKYNVDMRTAAYILAIDRVAYATKKRGIYP [R191A] | 0.41 | 2.63 | 1.59 | 4.71 | 0.32 | 1.7 | 3.1 | 4.53 | 0.34 | 67.3 | -2.2 | 49.5 |
| MPEKSLYEMAVEQFNRAASLMDLESDLAEVLRRPKRVLIVEFPVRMDDGHVEVFTGYRVQHNVARGPAKGGIRYHPDVTLDEVKALAFWMTWKTAVMNLPFGGGKGGVRVDPKKLSRNELERLSRRFFSEIQVIIGPYNDIPAPDVNTNADVMAWYMDTYSMNVGHTVLGIVTGKPVELGGSKGREEATGRGVAVCAGLAMDVLGIDPKKATVAVQGFGNVGQFAALLISQELGSKVVAVSDSRGGIYNPEGFDVEELIRYKKEHGTVVTYPKGERITNEELLELDVDILVPAALEGAIHAGNAERIKAKAVVEGANGPTTPEADEILSRRGILVVPDILANAGGVTVSYFEWVQDLQSFFWDLDQVRNALEKMMKGAFNDVMKVKEKYNVDMRTAAYILAIDRVAYATKKRGIYP [K194A] | -0.98 | 2.74 | 2.06 | 6.1 | – | – | – | – | -0.23 | 71 | 1.5 | 53.8 |
